Source: US20160185876A1 (DEVELOPMENT CENTER FOR BIOTECHNOLOGY, published 2016)

How the values were obtained:
[1] = target: T1, human ENO1 protein (human, UniProt P06733 1-434, limits assumed); experiment: SPR, BIAcore 2000, ENO1 injected, 25 degree C
T1 construct: The source and construct of the ENO1 protein used in ELISA and SPR are not described; also called alpha-enolase; enolase-1
Excerpt: To know the biding kinetics difference among individual antibodies, surface plasmon resonance (SPR) measurement with a BIAcore 2000 (BIAcore, Inc., Piscataway, N.J.) was used as previously described (Karlsson & Falt, (1997) J. Immunol Methods 200:121-133). Carboxymethylated dextran biosensor chips (CMS, BIAcore Inc.) were activated with N-ethyl-N′-(3-dimethylaminopropyl)-carbodiimide hydrochloride (EDC) and N-hydroxysuccinimide (NHS) according to the supplier's instructions. Chimera EN10 mAb was diluted with 10 mM sodium acetate, pH 4.8, into 5 microgram/ml before injection at a flow rate of 20 micro Uminute to achieve approximately 100 response units (RU) of coupled protein followed by the injection of 1M ethanolamine to block unreacted groups. For kinetics measurements, two-fold serial dilutions of ENO1 (0.3125 nM to 40 nM) were injected in HBS-P Biacore running buffer provided by the manufacturer (BIAcore, Inc., Piscataway, N.J.) at 25 degree C. at a flow rate of 25 microL/min, and binding responses on the EN10 mAb were corrected by subtraction of responses on a blank flow cell. Association rates (kon or ka) and dissociation rates (koff or kd) were calculated using a simple one-to-one Langmuir binding model with separate fittings of kon and koff was used. (BIAcore™ Evaluation Software version 3.2).

[2] = target: T1, human ENO1 protein; experiment: ENO1 binding ELISA

T1 sequence (P06733 whole entry): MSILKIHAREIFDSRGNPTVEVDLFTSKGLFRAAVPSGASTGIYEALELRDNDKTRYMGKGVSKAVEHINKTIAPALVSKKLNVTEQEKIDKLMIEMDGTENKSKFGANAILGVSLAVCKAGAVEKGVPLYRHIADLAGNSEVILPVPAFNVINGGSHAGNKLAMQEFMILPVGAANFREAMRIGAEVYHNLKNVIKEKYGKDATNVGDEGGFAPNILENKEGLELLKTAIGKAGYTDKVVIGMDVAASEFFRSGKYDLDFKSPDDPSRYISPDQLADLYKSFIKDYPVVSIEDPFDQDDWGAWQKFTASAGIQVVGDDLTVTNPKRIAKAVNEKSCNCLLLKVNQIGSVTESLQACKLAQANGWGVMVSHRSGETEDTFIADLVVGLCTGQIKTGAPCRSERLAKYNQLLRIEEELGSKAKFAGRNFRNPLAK

Row | Kd [1] [nM] | koff [1] [s⁻¹] | kon [1] [M⁻¹ s⁻¹] | Kd [2] [nM] | Binder
1 | 0.5 | 0.000176 | 351000 | – | hum EN10 mAb 4D5 (antibody, V domains shown, Humanized variable regions on human IgG; also called humanized EN10 mAb 4D5; 4D5 humanized edition) VH: EVQLVESGGGLVQPGGSLRLSCAASGYTFTSCVMNWVRQAPGKGLEWVAYINPYNDGTKYNEKFKGRFTISRDDSKNTLYLQMNSLRAEDTAVYYCAREGFYYGNFDNWGQGTLVTVSS VL: DIQMTQSPSSLSASVGDRVTITCRASENIYSYLTWYQQKPGKAPKLLIYNAKTLPEGVPSRFSGSGSGTDFTLTISSLQPEDFATYYCQHHYGTPYTFGQGTKLEIKR
2 | 0.219 | 0.000116 | 531000 | 0.0365 | hum EN10 mAb IMGT (antibody, V domains shown, Humanized variable regions on human IgG; also called Hum EN10 IMGT; humanized EN10 mAb IMGT) VH: QVQLVQSGAEVKKPGASVKVSCKASGYTFTSCVMNWVRQAPGQGLEWMGYINPYNDGTKYNEKFKGRVTMTTDTSTSTAYMELRSLRSDDTAVYYCAREGFYYGNFDNWGQGTLVTVSS VL: DIQMTQSPSSLSASVGDRVTITCRASENIYSYLTWYQQKPGKAPKLLIYNAKTLPEGVPSRFSGSGSGTDFTLTISSLQPEDFATYYCQHHYGTPYTFGQGTKLEIKR
